Source: US20240115745A1 (3B PHARMACEUTICALS, published 2024)
Bridges are numbered along the chain shown (N, C = ends). [ ]: non-standard residue; d: D form. The star is where a group is joined. mli = maleimide cyclization element: 3,4-maleimide inserted symmetrically, forming a vinyl thioether with each Cys sulfur; N4Ac = 6-carboxy-1,4,8,11-tetraazaundecane, NCCNCC(CNCCN)C(=O)*; Buur = n-butylaminocarbonyl blocking group, CCCCNC(=O)*; DOTA = O=C(O)CN1CCN(CC(=O)O)CCN(CC(=O)*)CCN(CC(=O)O)CC1; NODAGA = O=C(O)CN1CCN(CC(=O)O)CCN(C(CCC(=O)*)C(=O)O)CC1; hCys = N[C@@H](CCS)C(=O)O; Nle = CCCC[C@H](N)C(=O)O; Hexanoyl = CCCCCC(=O)*

B1: compound DOTA-Nle-[Cys(mli)-Pro-Pro-Thr-Gln-Phe-Cys]-Asp-NH2 (2003) (peptide)
peptide: {DOTA}-[Nle]CPPTQFCD-NH2
modifications: linker 2-8 via mli
B2: compound Hex-[Cys(mli)-Pro-Pro-Thr-Gln-Phe-Cys]-Asp-Lys(DOTA)-NH2 (2012) (peptide)
peptide: Hexanoyl-CPPTQFCDK(DOTA)-NH2
modifications: linker 1-7 via mli
B3: compound Hex-[Cys-Pro-Pro-Thr-Glu-Phe-Cys]-Asp-His-Phe-Arg-Asp-NH2 (1002) (peptide)
peptide: Hexanoyl-CPPTEFCDHFRD-NH2
modifications: disulfide 1-7
B4: compound Hex-[Cys(mli)-Pro-Pro-Thr-Gln-Phe-Cys]-Asp-NH2 (2001) (peptide)
peptide: Hexanoyl-CPPTQFCD-NH2
modifications: linker 1-7 via mli
B5: compound Hex-[Hcy-Pro-Pro-Thr-Gln-Phe-Hcy]-Asp-NH2 (2002) (peptide)
peptide: Hexanoyl-[hCys]PPTQF[hCys]D-NH2
modifications: disulfide 1-7
B6: compound Hex-[Cys-Pro-Pro-Thr-Gln-Phe-Cys]-Asp-Lys(DOTA)-NH2 (1016) (peptide)
peptide: Hexanoyl-CPPTQFCDK(DOTA)-NH2
modifications: disulfide 1-7
SMILES: CCCCCC(=O)N[C@H]1CSSC[C@@H](C(=O)N[C@@H](CC(=O)O)C(=O)N[C@@H](CCCCNC(=O)CN2CCN(CC(=O)O)CCN(CC(=O)O)CCN(CC(=O)O)CC2)C(N)=O)NC(=O)[C@H](Cc2ccccc2)NC(=O)[C@H](CCC(N)=O)NC(=O)[C@H]([C@@H](C)O)NC(=O)[C@@H]2CCCN2C(=O)[C@@H]2CCCN2C1=O
B7: compound Hex-[Cys-Pro-Pro-Thr-Glu-Phe-Cys]-Asp-Lys(NODAGA)-NH2 (1020) (peptide)
peptide: Hexanoyl-CPPTEFCDK(NODAGA)-NH2
modifications: disulfide 1-7
SMILES: CCCCCC(=O)N[C@H]1CSSC[C@@H](C(=O)N[C@@H](CC(=O)O)C(=O)N[C@@H](CCCCNC(=O)CCC(C(=O)O)N2CCN(CC(=O)O)CCN(CC(=O)O)CC2)C(N)=O)NC(=O)[C@H](Cc2ccccc2)NC(=O)[C@H](CCC(=O)O)NC(=O)[C@H]([C@@H](C)O)NC(=O)[C@@H]2CCCN2C(=O)[C@@H]2CCCN2C1=O
B8: compound Hex-[Cys-Pro-Pro-Thr-Glu-Phe-Cys]-Asp-Lys(DOTA)-NH2 (1013) (peptide)
peptide: Hexanoyl-CPPTEFCDK(DOTA)-NH2
modifications: disulfide 1-7
SMILES: CCCCCC(=O)N[C@H]1CSSC[C@@H](C(=O)N[C@@H](CC(=O)O)C(=O)N[C@@H](CCCCNC(=O)CN2CCN(CC(=O)O)CCN(CC(=O)O)CCN(CC(=O)O)CC2)C(N)=O)NC(=O)[C@H](Cc2ccccc2)NC(=O)[C@H](CCC(=O)O)NC(=O)[C@H]([C@@H](C)O)NC(=O)[C@@H]2CCCN2C(=O)[C@@H]2CCCN2C1=O
B9: compound Buur-[Cys-Pro-Pro-Thr-Glu-Phe-Cys]-Asp-Lys(DOTA)-NH2 (1015) (peptide)
peptide: Buur-CPPTEFCDK(DOTA)-NH2
modifications: disulfide 1-7
SMILES: CCCCNC(=O)N[C@H]1CSSC[C@@H](C(=O)N[C@@H](CC(=O)O)C(=O)N[C@@H](CCCCNC(=O)CN2CCN(CC(=O)O)CCN(CC(=O)O)CCN(CC(=O)O)CC2)C(N)=O)NC(=O)[C@H](Cc2ccccc2)NC(=O)[C@H](CCC(=O)O)NC(=O)[C@H]([C@@H](C)O)NC(=O)[C@@H]2CCCN2C(=O)[C@@H]2CCCN2C1=O
B10: compound Hex-[Cys-Pro-Pro-Thr-Glu-Phe-Cys]-Asp-Lys(N4Ac)-NH2 (1021) (peptide)
peptide: Hexanoyl-CPPTEFCDK(N4Ac)-NH2
modifications: disulfide 1-7
SMILES: CCCCCC(=O)N[C@H]1CSSC[C@@H](C(=O)N[C@@H](CC(=O)O)C(=O)N[C@@H](CCCCNC(=O)C(CNCCN)CNCCN)C(N)=O)NC(=O)[C@H](Cc2ccccc2)NC(=O)[C@H](CCC(=O)O)NC(=O)[C@H]([C@@H](C)O)NC(=O)[C@@H]2CCCN2C(=O)[C@@H]2CCCN2C1=O
B11: compound H-Met-[Cys-Pro-Pro-Thr-Glu-Phe-Cys]-Asp-His-Phe-Arg-Asp-NH2 (1001) (peptide)
peptide: MCPPTEFCDHFRD
HELM: PEPTIDE1{M.C.P.P.T.E.F.C.D.H.F.R.D.[am]}$PEPTIDE1,PEPTIDE1,2:R3-8:R3$$$V2.0
SMILES: CSCC[C@H](N)C(=O)N[C@H]1CSSC[C@@H](C(=O)N[C@@H](CC(=O)O)C(=O)N[C@@H](Cc2c[nH]cn2)C(=O)N[C@@H](Cc2ccccc2)C(=O)N[C@@H](CCCNC(=N)N)C(=O)N[C@@H](CC(=O)O)C(N)=O)NC(=O)[C@H](Cc2ccccc2)NC(=O)[C@H](CCC(=O)O)NC(=O)[C@H]([C@@H](C)O)NC(=O)[C@@H]2CCCN2C(=O)[C@@H]2CCCN2C1=O

Biological target: T1, fibroblast activation protein (FAP) on FAP-expressing human WI-38 fibroblasts (human, UniProt Q12884 1-760)
T1 construct: Endogenous FAP on WI-38 cells (ECACC) in the FACS assay; also called human FAP
Test: competitive FACS on WI-38 cells vs 3 nM Cy5-labeled probe; A = pIC50 >7.0
Method: FAP-expressing human WI-38 fibroblasts (ECACC) were cultured in EMEM including 15% fetal bovine serum, 2 mM L-Glutamine and 1% Non-essential amino acids. Cells were detached with Accutase (Biolegend, #BLD-423201) and washed in FACS buffer (PBS including 1% FBS). Cells were diluted in FACS buffer to a final concentration of 100.000 cells per ml and 200 μl of the cell suspension are transferred to a u-shaped non-binding 96-well plate (Greiner). […] Cell were washed twice with FACS buffer and resuspended in 200 μl FACS buffer. Cells were analyzed in an Attune NxT flow cytometer. Median fluorescence intensities (Cy5 channel) was calculated by Attune NxT software and plotted against peptide concentrations. Four parameter logistic (4PL) curve fitting and pIC50 calculations were performed using ActivityBase software.

Row | Binder | pIC50 Category (FACS)
1 | B1 | > 7 pIC50
2 | B2 | > 7 pIC50
3 | B3 | > 7 pIC50
4 | B4 | > 7 pIC50
5 | B5 | > 7 pIC50
6 | B6 | > 7 pIC50
7 | B7 | > 7 pIC50
8 | B8 | > 7 pIC50
9 | B9 | > 7 pIC50
10 | B10 | > 7 pIC50
11 | B11 | > 7 pIC50

Biological target: Recombinant human FAP (R&D systems, #3715-SE) (human, UniProt Q12884 26-760)
Test: cell-based or functional assay

Row | Binder | pIC50 Category (Activity), FRET-based FAP protease activity assay
12 | B1 | > 7 pIC50
13 | B2 | > 7 pIC50
14 | B3 | > 7 pIC50
15 | B4 | > 7 pIC50
16 | B5 | > 7 pIC50
17 | B6 | > 7 pIC50
18 | B7 | > 7 pIC50
19 | B8 | > 7 pIC50
20 | B9 | > 7 pIC50
21 | B10 | > 7 pIC50
22 | B11 | > 7 pIC50
